The series concerns MS2 coat protein. Put plainly: apparent KD of MS2 coat protein; designed switch direction (-1 OFF switch, 1 ON switch): -1; higher = weaker reporter binding. The procedure, abridged:
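Designed RNA switches with common flanks were transcribed on Illumina chips by stalled E. coli RNA polymerase and titrated with SNAP-549-labelled MS2 coat protein, from 0.7 or 1.5 nM doubling to 3 µM, in Tris-HCl pH 7.5 buffer with KCl, MgCl2, BSA, DTT, tRNA and Tween-20. Steps lasted 0.8–1.5 h (lowest) to 10–20 min (highest). Titrations ran without input, with 200 uM small-molecule ligand, or with an oligonucleotide input. Normalised cluster fluorescence was curve-fitted, and apparent KD is the per-design median over clusters.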

Setting [1] is: input ligand: microRNA oligo, concentration not stated.
Where [2] appears, read: Eterna round: R95, input ligand: microRNA oligo, concentration not stated.
Where [3] appears, read: Eterna round: R95, input ligand: FMN 200 uM.
The mark [4] stands for this setting: Eterna round: R95, input ligand: none.

As to “AGUUGGCGAGGAUAUACAUGAGGAUCACCCAUGUGAAAUUAAAGUGAGGAAAUGAAAAGUAGAAGGCGCUGACA [Mod of Mat - Jieux - Exclusion 3] (Eterna round: R97, puzzle: Exclusion 3)”, the “apparent KD of MS2 coat protein” value worked out at 686 nM (input ligand: FMN 200 uM) and 67.7 nM (input ligand: none).
Regarding “UUUCUUCAUAUCACAUGAGGAUCACCCAUGUUAUUCAUCGCGUAGGAUAUCGAGAUUUUUUUUUACGAGAAGGACGUAUUGAUA [JR_ExcNG3_Sub073] (Eterna round: R96, puzzle: Exclusion NG 3)”, the “apparent KD of MS2 coat protein” value runs as follows: (input ligand: FMN 200 uM) 49 nM; under setting [1], 51.6 nM; (input ligand: none) 52.2 nM.
Take “AUGUGCACGCUGCGAUCCUACAUGAGGAUCACCCAUGUGGUCUGGUGGCGUGGGUCACCGGACUUGGCUCGUCUUGC [salish99_S_TOV1_R5_074] (Eterna round: R97, puzzle: Sensor, turn-off variant 1)”: the “apparent KD of MS2 coat protein” value by setting is: (input ligand: FMN 200 uM) 28.1 nM; (input ligand: none) 27.6 nM.
As for “UGCAGACGAGGAUAUAGAUUUGAUAACAUGAGGAUCACCCAUGUGAUCGAUAGAUCAGAUUUAGAAGGCGUCUGCU [E5/8-A4] (Eterna round: R97, puzzle: Exclusion 5)”, the “apparent KD of MS2 coat protein” value was 586 nM (input ligand: FMN 200 uM) and 715 nM (input ligand: none).
Regarding “AAAAGAAAGGGAGGAUAUCUGACGGGAUACCAAAGAGAAGGCCCAGGCACAUGAGGAUCACCCAUGUUCGUGCGCCUACUUAAC [Enveri] (Eterna round: R96, puzzle: Exclusion NG 1)”, the “apparent KD of MS2 coat protein” value (input ligand: FMN 200 uM) is 28.3 nM, the “apparent KD of MS2 coat protein” value under setting [1] came to 9.73 nM and the “apparent KD of MS2 coat protein” value (input ligand: none) stood at 14.4 nM.
On to “AUAGUGUUAGGAUAUGCUUAUGCUGGGUAGUCCAGUAUGGAGUAGAAGGGACAUGAGGAUCACCCAUGUGCUCA [EX4 #40] (Eterna round: R97, puzzle: Exclusion 4)”, for which the “apparent KD of MS2 coat protein” value turned out to be 18.6 nM (input ligand: FMN 200 uM) and 20.5 nM (input ligand: none).
“AGUCGAAAGACCCACAUGGACAUGAGGAUCACCCAUGUACAAGCCUUUUGCUCGUCACUAUCGUCAAAAGACGAUAG [Omei Mir Offv1 A2] (Eterna round: R97, puzzle: Sensor, turn-off variant 1)”: the “apparent KD of MS2 coat protein” value was 30.8 nM (input ligand: FMN 200 uM) and 41.8 nM (input ligand: none).
On to “AAAAGCCAAGGAUAUACAUGAGGAUCACCCAUGUAAGAAAUGGGCGCUACCGUUCCGUGUAGAAGGUGGGAAAA [Inuserce] (puzzle: Exclusion 3)”, for which the “apparent KD of MS2 coat protein” value under setting [2] was determined as 26 nM.
Take “AAGCUGUGAGGAUAUACAUGAGGAUCACCCAUGUUAAGGAAGUCUUGGUUAAUUUGGUGUAGAAGGCGCUUAUU [JR_Ex3_Sub018] (Eterna round: R97, puzzle: Exclusion 3)”: the “apparent KD of MS2 coat protein” value is, setting by setting: (input ligand: FMN 200 uM) 32.6 nM; (input ligand: none) 32.4 nM.
Consider “GUAUAACAUGUAGGAUAUGCGUGGCGAAGCUAUGCAGAAGGACAUGAGGAUCACCCAUGUUUUUGCGUCUGCGUACAGAUGCUA [JL ENG1 1.40] (Eterna round: R96, puzzle: Exclusion NG 1)”, for which the “apparent KD of MS2 coat protein” value came to 107 nM (input ligand: FMN 200 uM), 15.2 nM under setting [1] and 21.5 nM (input ligand: none).
Regarding “GGAAAGCAAGGAUAUACGAGGAGAAGGAGGAAAGUUAAAGGACAUGAGGAUCACCCAUGUAGAAGGUGCGAGAG [JR_Exclu2_Sub041] (puzzle: Exclusion 2)”, the “apparent KD of MS2 coat protein” value reads like this: under setting [3], 30 nM; under setting [2], 30.7 nM; under setting [4], 34.6 nM.
In the case of “UGUUGUCGCGCAGGAUAUGAGGAUCACCCAUAUAGAGGAUAUGAAAAGAAGGUUCUGAGGAUCACCCAGAAGGGCGGGACAACU [pwkr exNG2 2xF5 2xFMN.19] (Eterna round: R96, puzzle: Exclusion NG 2)”, the “apparent KD of MS2 coat protein” value amounted to 384 nM (input ligand: FMN 200 uM), 48.7 nM under setting [1] and 67.4 nM (input ligand: none).
With “CUCAGACAUGAGGAUCACCCAUGUGAGGAUAUGAUGCGAUCGUCGAAAGACGAUAGCAUCAGAAGGUACAAAUG [Fiskers Ex 1 - 20] (puzzle: Exclusion 1)”, under setting [2], the “apparent KD of MS2 coat protein” value came to 55.3 nM.
Take “UUUCGGCGGACCGUGGCUUUUUGCUCGUCUUAUGCUUCGACAUGAGGAUCACCCAUGUGGUGGUGGUCCGUUGUUGU [Grok-var2-12 mod JAL] (puzzle: Sensor v3, turn-off variant 2)”: the “apparent KD of MS2 coat protein” value under setting [3] amounted to 29.9 nM, the “apparent KD of MS2 coat protein” value under setting [2] was 20.3 nM and the “apparent KD of MS2 coat protein” value under setting [4] was 48.9 nM.
For “UAAGUUUAGGUAGGAUAUACUUUUAAUUUCUCUUUCCUUACAUGAGGAUCACCCAUGUUUACAUUGUAGAAGGACCACUAUGUU [JR_ExcNG2_Sub053] (Eterna round: R96, puzzle: Exclusion NG 2)”, the “apparent KD of MS2 coat protein” value reads like this: (input ligand: FMN 200 uM) 17.8 nM; under setting [1], 18.3 nM; (input ligand: none) 26.4 nM.
Consider “GAUUAUGCGAGCUUUAGGGACAUGAGGAUCACCCAUGUUCGUCUUAUUGAUCUAGGUGCGCUAACAUACCUAAAUCU [JMF 49] (puzzle: Sensor v3, turn-off variant 1)”, for which the “apparent KD of MS2 coat protein” value was found to be 26.2 nM under setting [3], 34.7 nM under setting [2] and 30 nM under setting [4].
Turning to “GCGCCAUCGUGAGAUGGCGUAAUUACAUGAGGAUCACCCAUGUAGGAUAUCGAUUGCUUUGCAGUCGAGAAGGGCAUGAUAAGU [JL ENG3 3.79] (Eterna round: R96, puzzle: Exclusion NG 3)”, the “apparent KD of MS2 coat protein” value runs as follows: (input ligand: FMN 200 uM) 49.6 nM; under setting [1], 34.6 nM; (input ligand: none) 43.3 nM.
In the case of “AAGACACAUGAGGAUCACCCAUGUGAGGAUAUUCGAUGCUGAGCGUAAGCUUAGUAUCGGAGAAGGUACAUAGG [Salishxclusion 9 - Jieux - Exclusion 1] (Eterna round: R97, puzzle: Exclusion 1)”, the “apparent KD of MS2 coat protein” value worked out at 77.2 nM (input ligand: FMN 200 uM) and 66.6 nM (input ligand: none).
“AGCUAGAUAGGAUAUGCCCGGGAUAACAUGAGGAUCACCCAUGUGGCCGAAUCAUGUCCAGCAGAAGGGUUUGGGA [Mod of ViennaUCT 10 - Jieux - Exclusion 5] (Eterna round: R97, puzzle: Exclusion 5)”: the “apparent KD of MS2 coat protein” value (input ligand: FMN 200 uM) is 18.2 nM and the “apparent KD of MS2 coat protein” value (input ligand: none) was determined as 17 nM.
Take “AAGUUGCGAGGAUAUCGUAAGAUGGACAUGAGGAUCACCCAUGUGGUGCUUUUUUAUUGGCGAGAAGGCGCAUAAA [Zaiseren] (puzzle: Exclusion 5)”: the “apparent KD of MS2 coat protein” value is 134 nM under setting [3], 166 nM under setting [2] and 164 nM under setting [4].
Regarding “AUGGAACAUGAGGAUCACCCAUGUGAGGAUAUGUGAGAAGGAUUUGAGAUGGAGAGGGACAGAAGGCACUAGGA [JR_Exclu1_Sub082] (puzzle: Exclusion 1)”, under setting [2], the “apparent KD of MS2 coat protein” value was 37.6 nM.
In the case of “AAUAAUUGUGACUUGGGCGACAUGAGGAUCACCCAUGUUACAAGCUUGUUGCUCGUCUUAUAAUUAACCCAUGUCAC [LRO Sensor-off var1-23 mod of Stov1-13-A1 by Brourd] (Eterna round: R97, puzzle: Sensor, turn-off variant 1)”, the “apparent KD of MS2 coat protein” value is, setting by setting: (input ligand: FMN 200 uM) 15.8 nM; (input ligand: none) 18.4 nM.
The matching figures for “CAUUCAGAUGUCAGGAUAUCUGCGGGUAGGGCCGAAGAGAAGGGACAUGAGGAUCACCCAUGUACACUGCUAGA [BmEX4 B.28] (Eterna round: R97, puzzle: Brourd's mod of Exclusion 4)”: 22.9 nM and 16 nM.
Consider “AGAAACUCAAGAGGAUAUCACAUGAGGAUCACCCAUGUAUAGCGCGCUAUGCUAGUCCUCGUAUAUGAGAAGGUUUGAAAUAAG [Mat - Exclusion NG 2 - Mod of JL - D80] (Eterna round: R96, puzzle: Exclusion NG 2)”, for which the “apparent KD of MS2 coat protein” value stood at 16.4 nM (input ligand: FMN 200 uM), 12.6 nM under setting [1] and 17.9 nM (input ligand: none).
The matching figures for “AUAAUAGUAGGAGGAUAUCGCAGGAUAUGGGCCUUAAAACAUAACAUGAGGAUCACCCAUGUGCACGAGAAGGCCUGGAAAAUA [Orsolavera] (Eterna round: R96, puzzle: Exclusion NG 2)”: 25.7 nM, 11.5 nM and 18.6 nM.
For the sequence “UAAGUUUAGGUAGGAUAUACUUUAAAUUUCUCUAUCCAUACAUGAGGAUCACCCAUGUUUACAUUGUAGAAGGACCACUAUGUU [JR_ExcNG2_Sub055] (Eterna round: R96, puzzle: Exclusion NG 2)”, the “apparent KD of MS2 coat protein” value under setting [1] is 19.8 nM.
“CCUUUGUCAGGAUAUCAGUACAGGUCGAGUUUAGACCUGUUUGAGAAGGGACAUGAGGAUCACCCAUGUAAAAC [Inzaerle] (puzzle: Exclusion 4)”: the “apparent KD of MS2 coat protein” value under setting [2] was 78 nM.
In the case of “AACAUACAUGAGGAUCACCCAUGUGAGGAUAUGAGAGUCAACUCGAGAGAGUUGAUUCUCAGAAGGCACAUAAA [JR_Ex1_Sub065] (Eterna round: R97, puzzle: Exclusion 1)”, the “apparent KD of MS2 coat protein” value came to 226 nM (input ligand: FMN 200 uM) and 67.5 nM (input ligand: none).
Taken in the same sequence, the figures for “UAUUAGCAAGUAAGAUCCCACAUGAGGAUCACCCAUGUGCUCGUCUUAUAAGGUACUGUGACGAGAGUCACGGUACC [Mat - Sensor, turn-off var - Eli Mod - D45] (Eterna round: R97, puzzle: Sensor, turn-off variant 1)” were 16.4 nM and 19.1 nM.
With “UUCUUACAUGAGGAUCACCCAUGUCAGGAUAUCUCCGCACUGCGCUUGCGCAGUGCAUAGAGAAGGGACAGGCU [JL ViennaUCT Aner mod 4] (puzzle: Exclusion 1)”, the “apparent KD of MS2 coat protein” value under setting [2] came out at 45.7 nM.

For the origin of these results see the supplement of paper PMC9170038.
